Source: patent US20110081339A1 (Amgen, published 2011)
Read-outs that look alike come from different tables or passages of the source.

Tests used:
[1] = molecular target: T1, cynomolgus IL-17RA expressed on cells (cynomolgus); test: FACS; inhibition of biotin-huIL-17A binding; MFI
T1 construct: whole, on cells; CHO cell line over-expressing cynomolgus IL-17RA (FACS); also called cyno IL-17RA; CHO-cynoIL-17RA

[2] = molecular target: T1, cynomolgus IL-17RA expressed on cells; test: FACS; inhibition of biotin-huIL-17A binding; MFI; remark: listed apart in the source
Text: The anti-IL-17RA antibodies were characterized. […] Anti-IL-17RA non-clonal hybridomas were selected for sub-cloning based on their performance in the CHO-IL-17RA FACS assay and HFF bioassay.

[3] = molecular target: T1, cynomolgus IL-17RA expressed on cells; test: FACS; inhibition of biotin-huIL-17A binding; MFI; remark: listed apart in the source
[4] = molecular target: T1, cynomolgus IL-17RA expressed on cells; test: cell-based or functional assay
[5] = molecular target: Human IL-17RA full-length expressed on the surface of cells (human, UniProt Q96F46 33-866); test: cell-based or functional assay

Row | MFI [2] | MFI [3] | Binder | also measured
1 | – | – | IL-17RA mAb (AMH21/AML21) (antibody, IgG2, V domains shown, From IgG2 XenoMouse mice; also called AM-21; AML21/AMH21) VH: EVQLVESGGGSVQPGGSLRLSCAASGFTFSSYSMNWVRQAPGKGLEWVSIISSRSSIIHYADSVKGRFTISRDNAKNSLYLQMNSLRDEDTAVYYCARPKVGGGMDVWGQGTTVTVSS VL: DIQMTQSPSSLSASVGDRVTITCRASQGISNYLAWYQQKPGKFPELLIYAASTLQSGVPSRFSGSGSGTDFTLTISSLQPEDVATYYCQKYNRAPFTFGPGTKVDIK | MFI [1]: 6
2 | 6 | – | IL-17RA mAb (AMH13/AML13) (antibody, IgG2, V domains shown, From IgG2 XenoMouse mice; also called AM-13; AML13/AMH13) VH: QVQLVESGGGVVQPGRSLRLSCAASGFTFSSYGMQWVRQAPGKGLEWVAVIWYDGNKKYYADSVKGRFTISRDNSKNTLYLQMNSLRAEDTAVYYCARGRVRDYYYGMDVWGQGTTVTVSS VL: DIVMTQTPLSLSVTPGQPASIACKSSQSLLHSDGKTYLYWYLQKPGQPPQLLIYEVSTRFSGVPDRFSGSGSGTDFTLKISRVEAEDVGVFYCMQSIQLPLTFGGGTKVEIK | –
3 | – | 11 | IL-17RA mAb (AMH1/AML1) (antibody, V domains shown, also called AM-1; AML1/AMH1) VH: QVQLQESGPGLVKPSETLSLTCTVSGGSISNYYWNWIRQSPGKGLEWIGDIYYSGSTNYNPSLKSRVTISVDTSKNQFSLKLSSVTTADTAVYYCARDGELANYYGSGSYQFYYYYGMDVWGQGTTVTVSS VL: DILMTQSPSSLSASVGDRVTITCRASQGIRNDLGWYQQKPGKAPKRLIYAASSLQSGVPSRFSGSGSGTEFTLTISSLQPEDFATYYCLQHNSNPFTFGPGTKVDIK | –
4 | – | 9 | IL-17RA mAb (AMH5/AML5) (antibody, V domains shown, also called AM-5; AML5/AMH5) VH: QVQLQESGPGLVKPSETLPLTCTVSGGSIRSYYWSWIRQPAGKGLEWIGRIYRSGNTIYNPSLKSRVTMSIDTSKNQFSLTLSSVTAADTAVYYCARENYSESSGLYYYYGMDVWGQGTTVTVSS VL: DIQMTQSPSSLSASVGDRVTITCRASQGIRNDLGWYQQKPGKAPKRLIYAASSFQSGVPSRFSGSGSGTGFTLTISSLQPEDFATYYCLQHNSYPPTFGQGTKVEIK | –
5 | – | – | IL-17RA human mAb having the heavy and light chain variable sequences (AMH14/AML14) (antibody, IgG2, V domains shown, Fully human, from IgG2 XenoMouse mice; Only variable domains are tied to it in the description; also called AM-14; AML14/AMH14) VH: QVQLVQSGAEVKKPGASVKVSCKASGYTFTRYGISWVRQAPGQGLEWMGWISTYSGNTNYAQKLQGRVTMTTDTSTSTAYMELRSLRSDDTAVYYCARRQLYFDYWGQGTLVTVSS VL: EIVMTQSPATLSVSPGERATLSCRASQSVSSNLAWFQQKPGQAPRPLIYDASTRATGVPARFSGSGSGTDFTLTISSLQSEDFAVYYCQQYDNWPLTFGGGTKVEIK | MFI [1]: 10; IC50, cynomolgous IL-17A-induced IL-6 production from JTC-12 cells [4]: ~1.2 nM
6 | – | – | IL-17RA mAb (AMH15/AML15) (antibody, V domains shown, also called AM-15; AML15/AMH15) VH: QVQLVESGGGVVQPGRSLRLSCAASGFTFSSYGMQWVRQAPGKGLEWVAVIWYDGNKKYYADSVKGRFTISRDNSKNTLYLQMNSLRAEDTAVYYCARGRVRDYYYGMDVWGQGTTVTVSS VL: EIVMTQSPATLSVSPGERVTLSCRASQSVSSNLAWFQQKPGQAPRPLIYDASTRAAGIPARFSGSGSGTDFTLTISSLQSEDFAVYYCQQYDNWPLTFGGGTKVEIK | MFI [1]: 6
7 | – | – | AMH14/AML14 (hybridoma) (antibody, V domains shown) VH: QVQLVQSGAEVKKPGASVKVSCKASGYTFTRYGISWVRQAPGQGLEWMGWISTYSGNTNYAQKLQGRVTMTTDTSTSTAYMELRSLRSDDTAVYYCARRQLYFDYWGQGTLVTVSS VL: EIVMTQSPATLSVSPGERATLSCRASQSVSSNLAWFQQKPGQAPRPLIYDASTRATGVPARFSGSGSGTDFTLTISSLQSEDFAVYYCQQYDNWPLTFGGGTKVEIK | IC50 (read off the curve) (IL-17A-induced GRO-alpha production from HFF cells; blocked ligand m20) [5]: ~0.01 µg/mL
8 | 8 | – | IL-17RA mAb (AMH17/AML17) (antibody, V domains shown, From IgG2 XenoMouse mice; also called AM-17; AML17/AMH17) VH: QVQLVQSGAEVKKPGAAVKVSCKATGYTLTSYGISWVRQAPGQGLEWMGWISAYSGNTKYAQKLQGRVTMTTDTSTSTAYMELRSLRSDDTAVYYCARKQLVFDYWGQGTLVTVSS VL: not shown | –
9 | 6 | – | IL-17RA mAb (AMH12/AML12) (antibody, IgG2, V domains shown, From IgG2 XenoMouse mice; also called AM-12; AML12/AMH12) VH: QVQLVQSGAEVKKPGASVKVSCKASGYTLTSYGISWVRQAPGQGLEWMGWISTYKGNTNYAQKLQGRVTMTTDTSTSTAYMELRSLRSDDTAVYYCARKQLVFDYWGQGTLVTVSS VL: EIVMTQSPATLSVSPGERATLSCRASQSISSSLAWYQQKPGQAPRLLIYGASTRATGIPARFSGSGSGTEFTLTISSLQSENFAVYYCQQYDNWPLTFGGGTKVEIK | –
10 | 6 | – | IL-17RA mAb (AMH16/AML16) (antibody, IgG2, V domains shown, From IgG2 XenoMouse mice; also called AM-16; AML16/AMH16) VH: QVQLVQSGAEVKKPGASVKVSCKASGYTFTSYGISWVRQAPGQGLEWMGWISAYNGNTKYAQKLQGRVTMTTDTSTSTVYMELRSLRSDDTAVYYCARKQLVFDYWGQGTLVTVSS VL: EIVMTQSPATLSVSPGERATLSCRASQSISTSLAWYQQKPGQAPRLLIYGTSTRATGIPARFSGSGSGTEFTLTISSLQSEDFAVYFCQQYDIWPLTFGGGTKVEIK | –
11 | – | 18 | IL-17RA human mAb (AMH22/AML22) (antibody, IgG2, V domains shown, Fully human, from IgG2 XenoMouse mice; also called AM-22; AML22/AMH22) VH: QVQLVQSGAEVKKPGASVKVSCKASGYTFTRYGISWVRQAPGQGLEWMGWISAYSGNTNYAQKLQGRVTMTTDTSTSTAYMELRSLRSDDTAVYYCARRQLYFDYWGQGTLVTVSS VL: EIVMTQSPATLSVSPGERVTLSCRASQSVSSNLAWFQQKPGQAPRPLIYDASTRAAGIPARFSGSGSGTDFTLTISSLQSEDFAVYYCQQYDNWPLTFGGGTKVEIK | –
12 | – | 9 | IL-17RA mAb (AMH11/AML11) (antibody, V domains shown, also called AM-11; AML11/AMH11) VH: QVQLVESGGGVVQPGRSLRLSCATSGITFSSYGMHWVRQAPGKGLEWVAVIWYDGSNKYYADSVKGRFTISRDNSKNTLYLQMNSLRAEDTAVYYCARDTKDYWGQGTLVTVSS VL: EIVMTQSPATLSVSPGERATLSCRASQSVSSNLAWYQQKPGQAPRLLIYGASTRAAGIPARFSGGGSGTAFTLTISNLQSEDFAVYYCQHYINWPKWTFGQGTKVDIK | –
